Results from patent US20170073659A1 (MEDICINAL BIOCONVERGENCE RESEARCH CENTER, published 2017).

Target: T1, KRS WT-myc (C-terminus myc tagged KRS wild type) (human, UniProt Q15046 1-597)
T1 construct: Overexpressed in HCT116 cells and tested in lysate; The N-terminus may be cleaved in the cells under starvation; also called KRS-myc
Assay: anti-myc immunoprecipitation from starved cells, western blot for syntenin-1 (FIG. 3d)
Description: FIG. 3d illustrates results investigating the interaction between KRS and syntenin-1 using D12A mutant. C-terminus myc tagged KRS WT and D12A mutant were transfected and overexpressed in cells, and after 24 hr, the transfectants were incubated in serum starvation media for 1 hr, followed by precipitation using anti-myc antibody, and then KRS-bound syntenin-1 was monitored by western blot (mock: control with empty vector introduced into cells).
The cells were lysed with 50 mM Tris-HCl (pH 7.4) buffer containing 150 mM NaCl, 10 mM NaF, 12 mM beta-glycerophosphate, 1 mM EDTA, 1% NP-40, 10% glycerol, and protease inhibiting agent. Then, the supernatant was dissolved in SDS sample buffer, followed by separation using SDS-PAGE. For immunoblotting of endogenous KRS, anti-KRS antibody was used. Antibodies against Hsp90, syntenin-1, GFP, myc, caspase-3, -6, -8, -9, while syntenin-1 were purchased from Santa Cruz, and antibodies against alix were purchased from Cell Signaling. The anti-KRS antibody was manufactured by ordinary procedures in which KRS protein (Genbank Accession No. NP_005539.1) represented by SEQ ID NO: 2 was injected into New Zealand white rabbits to induce immune response and their antibodies were obtained. […]

T1 sequence (Q15046 whole entry): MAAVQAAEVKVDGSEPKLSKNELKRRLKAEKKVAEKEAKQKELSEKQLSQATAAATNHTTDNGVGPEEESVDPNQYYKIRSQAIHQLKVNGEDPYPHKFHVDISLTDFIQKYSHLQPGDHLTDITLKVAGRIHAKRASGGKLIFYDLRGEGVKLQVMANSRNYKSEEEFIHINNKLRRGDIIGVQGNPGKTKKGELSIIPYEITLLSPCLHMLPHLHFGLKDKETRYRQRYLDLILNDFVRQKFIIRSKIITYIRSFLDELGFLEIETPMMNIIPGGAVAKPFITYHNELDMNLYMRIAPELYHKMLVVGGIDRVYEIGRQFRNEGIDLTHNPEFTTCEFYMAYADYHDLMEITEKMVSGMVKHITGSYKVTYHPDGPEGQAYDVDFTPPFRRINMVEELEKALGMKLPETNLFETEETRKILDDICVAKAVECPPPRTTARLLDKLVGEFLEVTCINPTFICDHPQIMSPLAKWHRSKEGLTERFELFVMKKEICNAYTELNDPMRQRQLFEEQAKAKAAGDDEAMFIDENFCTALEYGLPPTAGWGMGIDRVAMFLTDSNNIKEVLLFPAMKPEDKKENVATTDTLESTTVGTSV

- binding result: binds
B1: syntenin-1, endogenous in HCT116 cells (other)
chain: SLYPSLEDLKVDKVIQAQTAFSANPANPAILSEASAPIPHDGNLYPRLYPELSQYMGLSLNEEEIRANVAVVSGAPLQGQLVARPSSINYMVAPVTGNDVGIRRAEIKQGIREVILCKDQDGKIGLRLKSIDNGIFVQLVQANSPASLVGLRFGDQVLQINGENCAGWSSDKAHKVLKQAFGEKITMTIRDRPFERTITMHKDSTGHVGFIFKNGKITSIVKDSSAARNGLLTEHNICEINGQNVIGLKDSQIADILSTSGTVVTITIMPAFIFEHIIKRMAPSIMKSLMDHTIPEV
